For test [1], the target named is T1, mouse 5T4 on transfected cells (mouse, UniProt Q9Z0L0 32-426).
T1 construct: whole, on cells; also called murine 5T4
T1 sequence (looked up): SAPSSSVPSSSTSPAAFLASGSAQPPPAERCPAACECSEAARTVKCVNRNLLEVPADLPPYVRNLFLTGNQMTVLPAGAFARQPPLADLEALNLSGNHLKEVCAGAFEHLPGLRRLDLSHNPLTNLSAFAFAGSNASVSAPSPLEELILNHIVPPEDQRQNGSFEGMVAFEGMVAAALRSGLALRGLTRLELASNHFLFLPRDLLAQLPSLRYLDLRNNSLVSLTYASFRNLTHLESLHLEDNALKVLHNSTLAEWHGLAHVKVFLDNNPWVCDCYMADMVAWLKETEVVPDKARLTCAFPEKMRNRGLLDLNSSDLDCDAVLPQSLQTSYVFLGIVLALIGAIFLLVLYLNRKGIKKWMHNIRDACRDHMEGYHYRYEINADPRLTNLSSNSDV
The test is described as follows: flow cytometry, mouse 5T4-transfected cells.

For test [2], the target named is T2, cynomolgus 5T4 on transfected CHO cells (Macaca mulatta (cynomolgus), UniProt F7CT46 35-420).
T2 construct: also called cyno5T4; cy5T4
T2 sequence: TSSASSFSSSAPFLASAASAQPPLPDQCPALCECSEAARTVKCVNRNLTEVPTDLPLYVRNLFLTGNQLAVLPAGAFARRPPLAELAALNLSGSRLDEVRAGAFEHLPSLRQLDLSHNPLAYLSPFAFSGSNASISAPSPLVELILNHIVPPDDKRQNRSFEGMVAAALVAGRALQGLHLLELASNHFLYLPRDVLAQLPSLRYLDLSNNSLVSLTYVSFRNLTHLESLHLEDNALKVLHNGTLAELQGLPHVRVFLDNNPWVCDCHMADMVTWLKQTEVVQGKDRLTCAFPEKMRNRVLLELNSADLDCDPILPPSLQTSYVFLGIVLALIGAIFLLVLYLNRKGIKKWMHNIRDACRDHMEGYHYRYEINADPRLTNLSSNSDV
The test is described as follows: flow cytometry, 5T4-transfected CHO cells. The procedure:
(§1) The potency of 5T4 antibodies in binding to cynomolgus 5T4 was determined by flow cytometry. CHO cells were stably transfected with […] (cynomolgus) 5T4. […] Samples were analysed either on a FACSCalibur or a FACSverse (BD Biosciences, Heidelberg, Germany) and mean fluorescence intensity (MFI) determined. […] To compare the EC50 values between human and cynomolgus 5T4, the cy5T4/hu5T4 ratio was calculated from the experiment with the full dose-response.
For orientation: A flow cytometer gives signals particle by particle.

For test [3], the target named is T3, human/mouse 5T4 chimera E1.
T3 construct: on transfected CHO cells
Put plainly: flow cytometry, cells with human/mouse 5T4 chimera. Here is the method: (§2) Epitope mapping was performed by investigation of loss of binding by the antibodies using a panel of human/mouse chimeric 5T4 constructs by flow cytometry. […] Two strategies were used for the epitope mapping as illustrated in FIG. 5. In one approach, seven human/mouse 5T4 chimeras were constructed based on dividing 5T4 into seven different domains (FIG. 5). By replacing each domain with the corresponding mouse sequence seven human/mouse 7 5T4 human/mouse chimeras were generated. The chimeras were generated using the human protein 5T4 sequence NP_006661.1 (reference mRNA sequence NM_006670.4) and the corresponding mouse sequence NP_035757.2 (reference mRNA sequence NM_011627.4). The human/mouse chimeric DNA constructs, as well as human and mouse wild-type 5T4, were cloned into pcDNA3.1 expression vectors. […] As controls human 5T4 and mouse 5T4-transfected cells were used. For flow cytometric analysis, cells were stained with different 5T4 antibodies diluted in FACS buffer (PBS, 0.5% BSA). […] Samples were analysed by FACSverse (BD Biosciences, Heidelberg, Germany) and % positive cells were determined. To compensate for variations in % 5T4 positive cells in the various transfected populations, binding levels were normalized within each chimera by dividing % positive cells for each clone with % positive cells for the clones resulting in the highest % positive cells (% pos cellscloneX/% positive cellsₘₐₓ). A normalized value ≤0.75 was defined as mAb binding being dependent on the replaced region, whereas a normalized value ≤0.25 was defined as complete dependence.

The target of test [4] is T4, human/mouse 5T4 chimera E2.
T4 construct: on transfected CHO cells
The test is described as follows: flow cytometry, cells with human/mouse 5T4 chimera. The procedure: as §2

Test [5] deals with T5, human/mouse 5T4 chimera E3.
T5 construct: on transfected CHO cells
The test is described as follows: flow cytometry, cells with human/mouse 5T4 chimera. Here is the method: as §2

The target in test [6] is T6, human/mouse 5T4 chimera E4.
T6 construct: on transfected CHO cells
The test is described as follows: flow cytometry, cells with human/mouse 5T4 chimera. The procedure:
as §2

Test [7] has as its target T7, human/mouse 5T4 chimera E5.
T7 construct: on transfected CHO cells
The test is described as follows: flow cytometry, cells with human/mouse 5T4 chimera. Here is the method: as §2

In test [8] the target is T8, human/mouse 5T4 chimera E6.
T8 construct: on transfected CHO cells
Put plainly: flow cytometry, cells with human/mouse 5T4 chimera. Here is the method:
as §2

The target of test [9] is T9, human/mouse 5T4 chimera E7.
T9 construct: on transfected CHO cells
The test is described as follows: flow cytometry, cells with human/mouse 5T4 chimera. Here is the method:
as §2

Test [10] deals with T2, cynomolgus 5T4 on transfected CHO cells. The test is described as follows: flow cytometry, cynomolgus 5T4-transfected CHO cells. Here is the method:
as §1

For the next test, the target named is T10, 5T4 (SPR antigen) (UniProt Q13641 32-355, limits assumed, biotinylated on the MASS-1 platform).
T10 construct: also called biotinylated 5T4
T10 sequence (looked up): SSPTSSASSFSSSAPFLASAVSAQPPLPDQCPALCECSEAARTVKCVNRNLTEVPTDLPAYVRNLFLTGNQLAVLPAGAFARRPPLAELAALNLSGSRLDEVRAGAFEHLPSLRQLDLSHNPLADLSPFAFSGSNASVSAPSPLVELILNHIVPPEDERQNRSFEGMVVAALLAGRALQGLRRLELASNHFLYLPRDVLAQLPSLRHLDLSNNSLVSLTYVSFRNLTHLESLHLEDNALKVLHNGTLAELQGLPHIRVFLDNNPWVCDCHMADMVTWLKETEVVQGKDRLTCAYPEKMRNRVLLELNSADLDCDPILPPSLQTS
Put plainly: SPR Biacore 3000, amine-coupled 5T4, mAb injected (bivalent). The procedure:
Binding kinetics of the 5T4-specific mAbs have been studied using two different SPR-based platforms, the Biacore 3000 (GE Healthcare) and the MASS-1 platform (Sierra Sensors). Briefly, 5T4 was captured at the sensor chip surface either via direct amine coupling (Biacore platform) or using a streptavidin coated chip and biotinylated 5T4 (MASS-1 platform). The different 5T4-specific mAbs were then injected over the chip in increasing concentrations and the association and dissociation rates studied in real time. A 1:1 Langmuir model was used for curve fitting.
A general note: SPR reads the build-up and loss of mass on a sensor chip optically.

Numbering of substitutions follows the chain as printed.

B1: 1210/1211 (antibody, V domains shown)
VH: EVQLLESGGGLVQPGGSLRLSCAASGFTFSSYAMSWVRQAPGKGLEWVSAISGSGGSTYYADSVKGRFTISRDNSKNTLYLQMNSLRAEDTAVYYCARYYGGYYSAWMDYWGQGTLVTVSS
VL: DIQMTQSPSSLSASVGDRVTITCRASQSISSYLNWYQQKPGKAPKLLIYAASSLQSGVPSRFSGSGSGTDFTLTISSLQPEDFATYYCQQTYGYLHTFGQGTKLEIK
Turning to B1, in [1], the binding result is on record as “no binding”. Moreover, the “Ratio EC50cyno5T4/h5T4” value in [2] stood at 0.9. For the same molecule, the “normalized % positive cells” value was determined as 0.99 in test [3]; 0.02 in [4]; 0.9 in test [5]; 0.69 in [6]; 0.89 in test [7]; 0.89 in test [8]. Moreover, the “normalized % positive cells” value in test [9] is 0.96. This molecule also showed a half-maximal effective concentration (EC50) in test [10] of 0.7 nM. In the test with 5T4 (SPR antigen), this molecule registered a Kd of 0.2 nM. Besides, the koff with 5T4 (SPR antigen) came to 0.0001 s⁻¹. The molecule further registered a kon with 5T4 (SPR antigen) of 500000 M⁻¹ s⁻¹.

B2: 1206/1207 (antibody, V domains shown)
VH: EVQLLESGGGLVQPGGSLRLSCAASGFTFSGSSMSWVRQAPGKGLEWVSSIYYSGSGTYYADSVKGRFTISRDNSKNTLYLQMNSLRAEDTAVYYCARYGRNVHPYNLDYWGQGTLVTVSS
VL: B1 VL with T91G, G93Y, H96P
As to B2, the binding result in test [1] was “no binding”. For the same molecule, the “Ratio EC50cyno5T4/h5T4” value in test [2] came out at 3. Moreover, the “normalized % positive cells” value in test [3] stood at 0.96; in test [4] it was 0.74; in [5], 0.25; in test [6] it was 0.52; in test [7], 0.9; in test [8], 0.94. Further, the “normalized % positive cells” value in [9] turned out to be 0.94. Besides, the midpoint of the response in test [10], the EC50, lay at 1.53 nM. Also, the Kd with 5T4 (SPR antigen) is 2.3 nM. In the test with 5T4 (SPR antigen), this molecule showed a koff of 0.00028 s⁻¹. Besides, the kon with 5T4 (SPR antigen) was 130000 M⁻¹ s⁻¹.

The EC50 is the midpoint of the concentration-response curve. A low value points to a more potent agent. Usually koff stands for the rate constant with which the complex falls apart. The term kon denotes the second-order rate constant of association. A higher kon goes with faster complex formation.

These data come from US20190169308A1 (ALLIGATOR BIOSCIENCE, published 2019).
